Assay results as given in article doi:10.1101/2022.05.20.492803.

Biological target: GST protein (free GST, cleaved from GST-tagged proteins)
Experiment: SAXS

GST protein (free GST, cleaved from GST-tagged proteins) (enzyme)
stoichiometry N: 2
